Laboratory results: the domain aggregation screens of Martell et al. (2025)

Test: soluble fraction after stress (log2 fold change); higher = more stays soluble; pooled small domains, quantitative proteomics
Conditions: stress: 50 degC
In short: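 Custom libraries of small protein domains were pooled and measured in a high-throughput format, with quantitative proteomics as the read-out. Each library was stressed at 50°C. The value is the log2 fold change in the amount of each protein that stays soluble after stress, used as a measure of aggregation propensity; higher values mean more of the protein stays soluble.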

Sequence | soluble fraction (log2)
HMLSAQEIPVEDIATRDFVLAEDVVSAKKVLLLPKGVDLSWFGSAKKRLVQRLKSEGVTHIRVFA | -0.0541
HMSKITNALLMMKLLSNGKVYSVKELSEELGVTERMVRNYKEQLEMSGYIIESFKGPGGGYFINKN | -1.61
HMATYDIDALKVDLPSAKELAQFVYDKTDGLVSLDLIGKPKEEQYIVAKNALEGKKVPAEYLTGFNPY | 0.202
HMSAAMTESVLDGIPGLGATRKAALLAHFGSVRKLRAATSEQVREVPGIGPRLAETILATLHEP | -0.181
HMYTVVVGDSPSLIADKTGVPLKELTAMNPNLSDNFLPGKQLL | 0.000825
HMEDPFATLGVHREASLDEIKRAYRRLAMFWHPDRNPEAVAGTEFKRVHAAYELLLDPQRLAEWQQAQAT | 0.04
HMAAMSLGERIGAHRKRMGISQEELGHRMGVSRQAVSKWETGRAVPDMENLLALARLFGVPVSELAD | -0.177
HMTMPDFGYMRVSYAEARRQLQAIGISVSTIEKVEDPSHTSATGDMVISQYPAAGSKIEGTVTLYVSVAS | -0.779
HMPDDHFIRGYVTAVLEQVLKVPSIQVEVERGVVILRGDLPGEERQELLDAVSRIHGVARVEYIPL | -0.0295
HMKELLTKQQREEILETVKTKTPKDFGYTAEHWTTGFLGKWIEEHYEVEYKSKTSLYLVFKKASFTYHKPG | 0.228
HMERFLENAIPVLGETGLDIKSATEDFENALIRQALHLSGGNKNRAATLLGLKRTTFVEMLKRKSL | -0.806
HMNWQLITDPKELRELVQKTIADNEAGTSRLREGDMGPLEFLTGIIMKKTRGLADPTMVKALLKEELNI | 0.132
HMQKPWFYESSGQRKGGFSEQEMVGLITDGEITHGAIVWRNGLSDWTKLEQTELAAHLDKTA | -0.249
HMSTMTGTVDTPGASLNVRTGAWGPIVGQLAHGSKVTIIGSSGDWFKISYNGATRYVHKNYVNTT | -0.153
HMNNGYSINEIAKLMKMTLKVVRRYVASGELKTTKTNNTYSISEEAFNEFKKYIEEGGDAKHAQEVADTFK | -0.229
HMITIDNYFNKEKELDFSSFPEALRKGHGFVSKATAHGSSWVSYHSSDAIKKTIDIYLSKLNEYLSNNAKA | -0.494

Sequence | soluble fraction (log2)
HMSMISLPNFVGKDIETVKAWAKENGITLIINKVEDSAKKDTVISQNPTNSDYSKILKGSAFTVNIAKE | 0.0206
HMKVSFEIEINGVTKSINSINEAKEAISELQDIMDNSTFGSEEFKNAATQIDKLQNKLVEALDK | -0.0374
HMANKTISMTTLKLVIQQLSKGISRQSISAQYHISRNTIKKYEKRIKAMDMKIEDILKLSDEEISNLLQ | -1.68
HMKLVELVGSPKQIAWAEDIRKNMISYLSALVRKYEAENRPARAEKRAKDMEILSNIKEASWFIENRS | -0.661
HMNLVGGKINSLMTTKNVTIQDLSERSGLTVSQIELLLSGDKVPSLAVLIKIARGLGVRVGTFL | -1.3
HMDEARLAVASNLIRLRTDAGMTQAELGEKLNYSDKTISKWERAEAIPDAFVLKQIGELFHVSVDFLLRTH | -0.37
HMDLFREERRQAILDWLATAGRVSVAELSASFGVSEVTVRADLQALADRRLVVRTHGGAMMAG | -1.43
HMEYKYNPADYPYPLNEDIEKVYSAYREKSIGKLEAAVQNLYYTLKQARRDNILSDVKVNEMQQYFLALRN | -0.324
HMKNSKIVIQKRHNHILELLKQNRTMDVTVLAERLGVTGATIRRDLKKLEQEGTIVRSFGKVSFVG | -0.867
HMSASSTAPGSVTLRGAILTAWTAAGGERSKMGLPVGYEVRQADGTVTQTFEKGRISVSPTGTATI | 0.0647
HMLAHSEFGARLRETRKRLGLSQSELGGDRYSGSYISHLESGRRAASAEVIEFLAGRLGVEVEELGM | -0.171
HMVAEPVYGKVTEGPLNVRSAPSTDSEKVDSFSTGKVLTILETLDGWYKVEEGYVSADYVTIIDAAEAASS | 0.00408
HMASFASRAEEVMTKLLANGQPRIKEVADAMHLSSRTLQRRLEREGVSFAELLDRLRKRLAHDMLAHS | -0.813
HMYSYSGSVSNTHDVPVSVVLKDAEGVAIASWDLQAKQSLNISAKDIATSSGTIEITGDGVSETKTVTFTK | 0.391
HMQPKKLNMYYDYVRQLLESHPYLSAAQIEDRLKEEFTELPMVHSKTVFNFVENIRLQHGINKHA | -0.152
